Test results as given in PMC9482650, “Quantitative fragmentomics allow affinity mapping of interactomes” (Nature Communications, 2022).

What was measured:
Test in all cases: holdup assay
Set-up in all cases: key: below the threshold = too weak to quantify, mostly under pKd 3.1 to 4
[1] = molecular target: IL16_3, Q14005
[2] = molecular target: T1, PCLO, Q9Y6V0
T1 sequence (Q9Y6V0 4491-4600, limits assumed, looked up): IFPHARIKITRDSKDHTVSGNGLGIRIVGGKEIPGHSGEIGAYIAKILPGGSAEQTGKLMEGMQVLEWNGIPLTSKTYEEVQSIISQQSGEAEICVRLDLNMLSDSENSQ

[3] = molecular target: DLG5_1, Q8TDM6
Sequence of DLG5_1, Q8TDM6 (Q8TDM6 617-713): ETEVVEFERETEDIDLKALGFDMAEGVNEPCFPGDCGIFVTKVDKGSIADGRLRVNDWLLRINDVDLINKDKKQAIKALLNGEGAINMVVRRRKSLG

[4] = molecular target: T2, ARHGEF11, O15085
T2 sequence (O15085 42-136, limits assumed, looked up): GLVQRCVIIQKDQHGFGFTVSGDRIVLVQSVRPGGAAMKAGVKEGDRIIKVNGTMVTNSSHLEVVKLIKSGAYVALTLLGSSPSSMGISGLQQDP

[5] = molecular target: FRMPD4, Q14CM0
Sequence of FRMPD4, Q14CM0 (Q14CM0 67-160): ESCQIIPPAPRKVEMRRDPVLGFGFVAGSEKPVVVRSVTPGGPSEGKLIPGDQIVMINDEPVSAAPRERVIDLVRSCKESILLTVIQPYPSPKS

[6] = molecular target: T3, PTPN13_1, Q12923
T3 sequence (Q12923 1088-1188, limits assumed, looked up): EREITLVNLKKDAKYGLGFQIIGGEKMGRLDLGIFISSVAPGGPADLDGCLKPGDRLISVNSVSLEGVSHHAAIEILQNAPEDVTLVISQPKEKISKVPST

[7] = molecular target: PICK1, Q9NRD5
Sequence of PICK1, Q9NRD5 (Q9NRD5 17-115): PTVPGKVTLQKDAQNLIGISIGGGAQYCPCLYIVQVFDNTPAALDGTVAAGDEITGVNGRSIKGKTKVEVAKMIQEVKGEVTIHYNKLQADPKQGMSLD

[8] = molecular target: MAGI1_1, Q96QZ7
Sequence of MAGI1_1, Q96QZ7 (Q96QZ7 1-106): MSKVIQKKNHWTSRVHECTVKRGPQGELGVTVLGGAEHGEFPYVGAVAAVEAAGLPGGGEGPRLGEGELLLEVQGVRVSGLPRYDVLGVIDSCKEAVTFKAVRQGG

[9] = molecular target: T4, LRRC7, Q96NW7
T4 sequence (Q96NW7 1440-1537, limits assumed, looked up): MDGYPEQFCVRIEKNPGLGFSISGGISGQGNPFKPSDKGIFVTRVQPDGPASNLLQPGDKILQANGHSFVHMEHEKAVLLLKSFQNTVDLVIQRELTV

[10] = molecular target: MAST2, Q6P0Q8
Sequence of MAST2, Q6P0Q8 (Q6P0Q8 1099-1202): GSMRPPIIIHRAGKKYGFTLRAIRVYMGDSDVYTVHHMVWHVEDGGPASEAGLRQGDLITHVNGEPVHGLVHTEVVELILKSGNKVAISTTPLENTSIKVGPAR

[11] = molecular target: Inadl_10, Q8NI35
Sequence of Inadl_10, Q8NI35 (Q8NI35 1673-1763): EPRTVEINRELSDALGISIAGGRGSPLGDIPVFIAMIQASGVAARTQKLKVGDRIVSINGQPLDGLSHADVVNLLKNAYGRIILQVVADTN

[12] = molecular target: T5, LIN7B, Q9HAP6
T5 sequence (Q9HAP6 88-185, limits assumed, looked up): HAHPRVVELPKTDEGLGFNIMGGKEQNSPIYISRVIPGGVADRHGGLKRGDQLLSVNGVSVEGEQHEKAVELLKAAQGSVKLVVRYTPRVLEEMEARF

[13] = molecular target: Inadl_5, Q8NI35
Sequence of Inadl_5, Q8NI35 (Q8NI35 673-780): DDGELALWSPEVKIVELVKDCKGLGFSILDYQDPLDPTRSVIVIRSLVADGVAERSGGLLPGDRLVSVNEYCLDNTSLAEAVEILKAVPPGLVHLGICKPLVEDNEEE

[14] = molecular target: NHERF4_2, Q86UT5
Sequence of NHERF4_2, Q86UT5 (Q86UT5 220-308): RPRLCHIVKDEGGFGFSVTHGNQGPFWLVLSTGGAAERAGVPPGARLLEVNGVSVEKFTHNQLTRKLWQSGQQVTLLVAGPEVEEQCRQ

[15] = molecular target: GRIP2_4, Q9C0E4
Sequence of GRIP2_4, Q9C0E4 (Q9C0E4 446-548): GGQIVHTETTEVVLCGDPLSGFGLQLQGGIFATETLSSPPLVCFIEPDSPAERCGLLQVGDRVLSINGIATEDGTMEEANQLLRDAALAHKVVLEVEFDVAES

[16] = molecular target: Inadl_2, Q8NI35
Sequence of Inadl_2, Q8NI35 (Q8NI35 238-335): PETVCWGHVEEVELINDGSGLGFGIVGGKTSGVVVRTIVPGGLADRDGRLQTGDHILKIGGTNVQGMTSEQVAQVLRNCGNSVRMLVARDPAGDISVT

[17] = molecular target: T6, SHANK1, Q9Y566
T6 sequence (Q9Y566 658-767, limits assumed, looked up): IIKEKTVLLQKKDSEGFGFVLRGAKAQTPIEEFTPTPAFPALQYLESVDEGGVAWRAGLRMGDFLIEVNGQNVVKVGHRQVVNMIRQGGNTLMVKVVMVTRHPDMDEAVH

[18] = molecular target: HTRA1, Q92743
Sequence of HTRA1, Q92743 (Q92743 360-477): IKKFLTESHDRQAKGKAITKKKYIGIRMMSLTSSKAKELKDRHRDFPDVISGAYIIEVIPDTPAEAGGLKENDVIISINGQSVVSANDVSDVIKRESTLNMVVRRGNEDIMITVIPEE

[19] = molecular target: T7, MPDZ_12, O75970
T7 sequence (O75970 1857-1958, limits assumed, looked up): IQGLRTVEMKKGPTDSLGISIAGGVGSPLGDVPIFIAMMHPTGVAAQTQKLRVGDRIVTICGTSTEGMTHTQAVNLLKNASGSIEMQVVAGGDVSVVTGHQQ

[20] = molecular target: T8, ARHGAP21, Q5T5U3
T8 sequence (Q5T5U3 45-169, limits assumed, looked up): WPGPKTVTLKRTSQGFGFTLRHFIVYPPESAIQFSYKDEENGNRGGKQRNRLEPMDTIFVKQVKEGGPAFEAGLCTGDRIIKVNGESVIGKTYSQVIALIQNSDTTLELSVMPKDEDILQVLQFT

[21] = molecular target: T9, MPP2, Q14168
T9 sequence (Q14168 180-250, limits assumed, looked up): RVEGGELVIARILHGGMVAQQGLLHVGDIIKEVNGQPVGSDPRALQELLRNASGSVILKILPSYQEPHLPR

[22] = molecular target: TJP1_2, Q07157
Sequence of TJP1_2, Q07157 (Q07157 181-274): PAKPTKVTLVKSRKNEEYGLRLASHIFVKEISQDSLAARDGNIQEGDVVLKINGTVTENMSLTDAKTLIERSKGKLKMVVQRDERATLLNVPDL

[23] = molecular target: T10, APBA3_1, O96018
T10 sequence (O96018 389-490, limits assumed, looked up): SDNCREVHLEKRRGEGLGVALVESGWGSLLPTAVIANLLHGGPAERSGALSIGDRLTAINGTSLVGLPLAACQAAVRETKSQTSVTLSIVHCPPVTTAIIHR

[24] = molecular target: CASK, O14936
Sequence of CASK, O14936 (O14936 487-570): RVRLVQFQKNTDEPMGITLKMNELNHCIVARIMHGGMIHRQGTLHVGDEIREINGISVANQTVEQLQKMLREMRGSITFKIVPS

[25] = molecular target: ARHGEF12, Q9NZN5-2
Sequence of ARHGEF12, Q9NZN5-2 (Q9NZN5 other isoform, or with tags, fused parts or gaps): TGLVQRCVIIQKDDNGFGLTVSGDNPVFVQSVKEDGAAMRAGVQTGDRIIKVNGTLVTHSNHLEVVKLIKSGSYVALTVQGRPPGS

[26] = molecular target: PTPN3, P26045
Sequence of PTPN3, P26045 (P26045 505-587): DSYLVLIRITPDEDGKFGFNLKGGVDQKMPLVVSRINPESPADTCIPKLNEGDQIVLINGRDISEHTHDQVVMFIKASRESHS

[27] = molecular target: T11, RADIL, Q96JH8
T11 sequence (Q96JH8 971-1071, limits assumed, looked up): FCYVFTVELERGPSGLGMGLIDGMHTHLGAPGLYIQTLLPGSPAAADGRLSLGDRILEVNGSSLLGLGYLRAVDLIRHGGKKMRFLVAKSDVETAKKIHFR

[28] = plain residues with an end cap or a label only (N-terminal biotin on a linker: ttds)
[29] = plain residues with an end cap or a label only (N-terminal biotin on a linker: ahx)
[30] = plain residues with an end cap or a label only (N-terminal biotin on a linker: ado-ado)

Sequence of IL16_3, Q14005 (Q14005 1107-1207): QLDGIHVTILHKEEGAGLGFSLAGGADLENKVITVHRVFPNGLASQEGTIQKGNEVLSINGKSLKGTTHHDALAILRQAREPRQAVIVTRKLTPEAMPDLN

## RSLEEEESQL [GRASP, Q7Z6J2]
[1]; [28]
  pKd: below the threshold
[2]; [28]
  pKd: 3.73
[3]; [28]
  pKd: below the threshold
[4]; [28]
  pKd: 3.78
[5]; [28]
  pKd: 4.48
[6]; [28]
  pKd: 3.63
[7]; [28]
  pKd: 3.59
[8]; [28]
  pKd: below the threshold
[9]; [28]
  pKd: below the threshold
[10]; [28]
  pKd: 5.6
[11]; [28]
  pKd: below the threshold
[12]; [28]
  pKd: 3.7
[13]; [28]
  pKd: below the threshold
[14]; [28]
  pKd: below the threshold
[15]; [28]
  pKd: 3.75
[16]; [28]
  pKd: below the threshold
[17]; [28]
  pKd: 5.1
[18]; [28]
  pKd: 4.33
[19]; [28]
  pKd: below the threshold
[20]; [28]
  pKd: 3.83
[21]; [28]
  pKd: below the threshold
[22]; [28]
  pKd: below the threshold
[23]; [28]
  pKd: below the threshold
[24]; [28]
  pKd: below the threshold
[25]; [28]
  pKd: 3.56
[26]; [28]
  pKd: 4.83
[27]; [28]
  pKd: 3.53

## HTHSYIETHV [CNKSR2, Q8WXI2]
[1]; [29]
  pKd: below the threshold
[2]; [29]
  pKd: below the threshold
[3]; [29]
  pKd: below the threshold
[4]; [29]
  pKd: below the threshold
[5]; [29]
  pKd: below the threshold
[6]; [29]
  pKd: below the threshold
[7]; [29]
  pKd: below the threshold
[8]; [29]
  pKd: below the threshold
[9]; [29]
  pKd: 4.75
[10]; [29]
  pKd: 5.29
[11]; [29]
  pKd: below the threshold
[12]; [29]
  pKd: below the threshold
[13]; [29]
  pKd: below the threshold
[14]; [29]
  pKd: below the threshold
[15]; [29]
  pKd: below the threshold
[16]; [29]
  pKd: below the threshold
[17]; [29]
  pKd: 4.24
[18]; [29]
  pKd: 3.84
[19]; [29]
  pKd: below the threshold
[20]; [29]
  pKd: below the threshold
[21]; [29]
  pKd: below the threshold
[22]; [29]
  pKd: below the threshold
[23]; [29]
  pKd: below the threshold
[24]; [29]
  pKd: below the threshold
[25]; [29]
  pKd: 3.88
[26]; [29]
  pKd: 4.58
[27]; [29]
  pKd: 4.22

## KRPEMTSSSV [MUC3B, MUC3A, Q02505;Q9H195]
[3]; [30]
  pKd: below the threshold
[6]; [30]
  pKd: below the threshold
[7]; [30]
  pKd: 2.09
[19]; [30]
  pKd: below the threshold
[20]; [30]
  pKd: 1.86
[22]; [30]
  pKd: below the threshold
[24]; [30]
  pKd: below the threshold
[25]; [30]
  pKd: 4
[26]; [30]
  pKd: 4.55

## KSRVAFFEEL [NF2, P35240]
[9]; [30]
  pKd: 3.5
[14]; [30]
  pKd: 3.66
[15]; [30]
  pKd: 3.73
[22]; [30]
  pKd: 3.51

## SVWLRKETRV [CYSLTR2, Q9NS75]
[1]; [28]
  pKd: below the threshold
[2]; [28]
  pKd: below the threshold
[3]; [28]
  pKd: below the threshold
[4]; [28]
  pKd: 4.46
[5]; [28]
  pKd: below the threshold
[6]; [28]
  pKd: 3.43
[7]; [28]
  pKd: 3.42
[8]; [28]
  pKd: below the threshold
[9]; [28]
  pKd: 3.65
[10]; [28]
  pKd: 5.27
[11]; [28]
  pKd: below the threshold
[12]; [28]
  pKd: 4.35
[13]; [28]
  pKd: 3.62
[14]; [28]
  pKd: below the threshold
[15]; [28]
  pKd: below the threshold
[16]; [28]
  pKd: below the threshold
[17]; [28]
  pKd: 3.51
[18]; [28]
  pKd: below the threshold
[19]; [28]
  pKd: below the threshold
[20]; [28]
  pKd: below the threshold
[21]; [28]
  pKd: below the threshold
[22]; [28]
  pKd: below the threshold
[23]; [28]
  pKd: below the threshold
[24]; [28]
  pKd: below the threshold
[25]; [28]
  pKd: 4.23
[26]; [28]
  pKd: 4.68
[27]; [28]
  pKd: 3.7

## ERKLSSESQV [LRP4, O75096]
[1]; [28]
  pKd: below the threshold
[2]; [28]
  pKd: below the threshold
[3]; [28]
  pKd: below the threshold
[4]; [28]
  pKd: below the threshold
[5]; [28]
  pKd: below the threshold
[6]; [28]
  pKd: below the threshold
[7]; [28]
  pKd: below the threshold
[8]; [28]
  pKd: below the threshold
[9]; [28]
  pKd: below the threshold
[10]; [28]
  pKd: 4.34
[11]; [28]
  pKd: below the threshold
[12]; [28]
  pKd: below the threshold
[13]; [28]
  pKd: below the threshold
[14]; [28]
  pKd: below the threshold
[15]; [28]
  pKd: below the threshold
[16]; [28]
  pKd: below the threshold
[17]; [28]
  pKd: below the threshold
[18]; [28]
  pKd: below the threshold
[19]; [28]
  pKd: below the threshold
[20]; [28]
  pKd: below the threshold
[21]; [28]
  pKd: below the threshold
[22]; [28]
  pKd: below the threshold
[23]; [28]
  pKd: below the threshold
[24]; [28]
  pKd: below the threshold
[25]; [28]
  pKd: 3.7
[26]; [28]
  pKd: 4.61
[27]; [28]
  pKd: below the threshold

## SRPQRTQTQV [HPV67-E6, A4U7F2]
[1]; [28]
  pKd: below the threshold
[2]; [28]
  pKd: below the threshold
[3]; [28]
  pKd: below the threshold
[4]; [28]
  pKd: 4.05
[5]; [28]
  pKd: below the threshold
[6]; [28]
  pKd: below the threshold
[7]; [28]
  pKd: below the threshold
[8]; [28]
  pKd: below the threshold
[9]; [28]
  pKd: below the threshold
[10]; [28]
  pKd: 5.27
[11]; [28]
  pKd: below the threshold
[12]; [28]
  pKd: below the threshold
[13]; [28]
  pKd: below the threshold
[14]; [28]
  pKd: below the threshold
[15]; [28]
  pKd: below the threshold
[16]; [28]
  pKd: below the threshold
[17]; [28]
  pKd: below the threshold
[18]; [28]
  pKd: below the threshold
[19]; [28]
  pKd: below the threshold
[20]; [28]
  pKd: below the threshold
[21]; [28]
  pKd: below the threshold
[22]; [28]
  pKd: below the threshold
[23]; [28]
  pKd: below the threshold
[24]; [28]
  pKd: below the threshold
[25]; [28]
  pKd: 4
[26]; [28]
  pKd: 3.95
[27]; [28]
  pKd: below the threshold
